Data reported in patent EP1441764B1.

Molecular target: C-RANKL protein (mouse RANKL fragment with N-terminal cysteine-containing linker GPGCGGG and hexahistidine tag) (mouse) (UniProt O35235)
Assay: ELISA on plates coated with C-RANKL 10 ug/ml, serial dilutions of RANK-Fc, anti-Fc-HRP detection

UniProt O35235, sequence (O35235 other isoform, or with tags, fused parts or gaps limits assumed, form in doubt): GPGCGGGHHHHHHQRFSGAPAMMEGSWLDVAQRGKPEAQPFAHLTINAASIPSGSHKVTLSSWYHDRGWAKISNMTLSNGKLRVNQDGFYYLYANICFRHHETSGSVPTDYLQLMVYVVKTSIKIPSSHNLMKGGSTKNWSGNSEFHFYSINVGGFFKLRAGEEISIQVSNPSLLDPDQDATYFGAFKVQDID

purified RANK-Fc fusion protein was tested, and the EC50 was 1 to 3 nM.
